This note sets out measurements from US20220257706A1, “EPIDERMAL GROWTH FACTOR RECEPTOR (EGFR) LIGANDS” (NANYANG TECHNOLOGICAL UNIVERSITY, priority 2019, published 2022).

One may read the IC50 as the concentration needed to halve the response being measured. Low values mean inhibition by little substance, high ones a need for much substance.

One experiment has as its target EGFR-Fc, P00533. The experiment in a line: TR-FRET competitive displacement of biotin-EGF from EGFR-Fc.
Experiment [1] concerns the target EGFR of HaCaT (human keratinocyte) cells (human), P00533. The experiment in a line: cell-based or functional assay.

B1: bleogen pB1 (peptide)
peptide: QCKPNGAKCTEISIPPCCSNFCLRYAGQKSGTCANR
modifications: not checked
In the case of B1, the IC50 with EGFR-Fc, P00533 was 1720 nM. Moreover, the HaCaT cell proliferation (crystal violet, 72 h), EC50 in experiment [1] was determined as 130 nM.
